Key:
[1] = molecular target: T1, rHuman IGF-1 sR, (IGF-1 sR), CF (R&D Systems Cat#391-GR) (human, UniProt P08069 31-932); test: Multispot ECL (MSD) assay, antigen spotted on plate, Fab at 0.0624 µM; blank spot 960
T1 construct: Bought recombinant soluble receptor; also called insulin-like growth factor-1 soluble receptor

[2] = molecular target: T2, Recombinant Human DLL4 (R&D Systems Cat#1506-D4/CF) (human, UniProt Q9NR61 27-524); test: as above
T2 construct: Bought recombinant protein; also called delta-like protein 4; rHuman DLL4

[3] = molecular target: T3, rHuman P-Cadherin/Fc Chimera, CF (R&D Systems Cat#861-PC) (human, UniProt P22223 108-654); test: as above
T3 construct: Bought recombinant protein; Fc part of the bought chimera not given

[4] = molecular target: T4, rHuman Notch-1/Fc Chimera, CF (R&D Systems Cat#3647-TK) (human, UniProt P46531 19-526); test: as above
T4 construct: Bought recombinant protein; Fc part of the bought chimera not given

[5] = molecular target: T5, rHuman HGF R/c-MET/Fc Chimera, CF (R&D Systems Cat#358-MT/CF) (human, UniProt P08581 25-932); test: as above
T5 construct: Bought recombinant protein; also called HGF R/Fc; hepatocyte growth factor receptor (HGF R/c-Met); Fc part of the bought chimera not given

[6] = molecular target: T6, rHuman Erythropoietin R/Fc Chimera, CF (R&D Systems Cat#963-ER) (human, UniProt P19235 25-250); test: as above
T6 construct: Bought recombinant protein; also called EPO R/Fc; Epo R; Fc part of the bought chimera not given
T6 sequence (looked up): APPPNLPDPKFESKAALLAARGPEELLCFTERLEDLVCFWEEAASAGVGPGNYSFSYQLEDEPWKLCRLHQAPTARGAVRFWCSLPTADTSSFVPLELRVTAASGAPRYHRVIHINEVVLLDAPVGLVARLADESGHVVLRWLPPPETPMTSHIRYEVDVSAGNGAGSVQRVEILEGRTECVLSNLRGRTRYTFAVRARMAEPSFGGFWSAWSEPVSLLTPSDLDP

[7] = molecular target: T7, rHuman CD44/Fc Chimera, CF (R&D Systems Cat#3660-CD) (human, UniProt P16070 21-220); test: as above
T7 construct: Bought recombinant protein; Fc part of the bought chimera not given

[8] = molecular target: T8, rHuman EGF R/Fc Chimera, CF (R&D Systems Cat#344-ER) (human, UniProt P00533 25-645); test: as above
T8 construct: Bought recombinant protein; also called epidermal growth factor receptor (EGF R); Fc part of the bought chimera not given

[9] = molecular target: T9, rHuman ErbB2/Fc Chimera, CF (R&D Systems Cat#1129-ER) (human, UniProt P04626 23-652); test: as above
T9 construct: Bought recombinant protein; also called human epidermal growth factor 2 receptor (ErbB2); Fc part of the bought chimera not given

[10] = molecular target: T10, rHuman Erythropoietin R/Fc Chimera, CF (R&D Systems Cat#963-ER) (human, UniProt P19235 25-250); test: Multispot ECL (MSD) titration; antigen spotted on plate; Fab 930 nM; blank spot 1206
T10 construct: Bought Fc chimera; also called EPO R/Fc; EPO R; Fc part of the bought chimera not given
T10 sequence (looked up): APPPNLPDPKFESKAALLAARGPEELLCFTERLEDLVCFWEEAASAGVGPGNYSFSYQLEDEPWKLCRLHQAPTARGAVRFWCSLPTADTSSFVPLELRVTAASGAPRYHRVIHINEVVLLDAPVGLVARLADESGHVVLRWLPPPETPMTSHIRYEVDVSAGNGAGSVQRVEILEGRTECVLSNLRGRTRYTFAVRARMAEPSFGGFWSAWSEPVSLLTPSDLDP

[11] = molecular target: T11, rHuman CD44/Fc Chimera, CF (R&D Systems Cat#3660-CD) (human, UniProt P16070 21-220); test: MSD Multispot ECL, antigen spotted on plate, Fab at 30 nM; blank spot 213
T11 construct: Bought Fc chimera; Fc part of the bought chimera not given

[12] = molecular target: T12, rHuman Erythropoietin R/Fc Chimera, CF (R&D Systems Cat#963-ER) (human, UniProt P19235 25-250); test: as above
T12 construct: Bought Fc chimera; also called EPO R/Fc; Epo R; Fc part of the bought chimera not given
T12 sequence (looked up): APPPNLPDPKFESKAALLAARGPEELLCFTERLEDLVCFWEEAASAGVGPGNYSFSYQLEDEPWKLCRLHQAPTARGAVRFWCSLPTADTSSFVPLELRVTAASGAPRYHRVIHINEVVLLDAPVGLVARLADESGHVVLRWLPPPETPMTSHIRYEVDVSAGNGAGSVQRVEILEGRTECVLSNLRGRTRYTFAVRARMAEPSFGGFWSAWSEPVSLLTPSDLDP

[13] = molecular target: T13, Recombinant Human DLL4 (R&D Systems Cat#1506-D4/CF) (human, UniProt Q9NR61 27-524); test: as above
T13 construct: Bought recombinant protein; also called rHuman DLL4; delta-like protein 4

[14] = molecular target: T14, rHuman P-Cadherin/Fc Chimera, CF (R&D Systems Cat#861-PC) (human, UniProt P22223 108-654); test: as above
T14 construct: Bought Fc chimera; Fc part of the bought chimera not given

[15] = molecular target: T15, rHuman Notch-1/Fc Chimera, CF (R&D Systems Cat#3647-TK) (human, UniProt P46531 19-526); test: as above
T15 construct: Bought Fc chimera; Fc part of the bought chimera not given

[16] = molecular target: T16, rHuman HGF R/c-MET/Fc Chimera, CF (R&D Systems Cat#358-MT/CF) (human, UniProt P08581 25-932); test: MSD multispot ECL, antigen spotted on plate, Fab 352.5 nM; blank spot 494
T16 construct: Bought from R&D Systems; also called HGF R/Fc; hepatocyte growth factor receptor (HGF R/c-Met); not shown: Fc of the bought chimera

[17] = molecular target: T17, rHuman P-Cadherin/Fc Chimera, CF (R&D Systems Cat#861-PC) (human, UniProt P22223 108-654); test: as above
T17 construct: Bought from R&D Systems; not shown: Fc of the bought chimera

B1: Fab VH1-46_IGHD7-27*01_IGHJ2*01 & L6_IGKJ1*01 (Fab, V domains shown)
VH: QVQLVQSGAEVKKPGASVKVSCKASGYTFTSYYMHWVRQAPGQGLEWMGIINPSGGSTSYAQKFQGRVTMTRDTSTSTVYMELSSLRSEDTAVYYCARANWGYWYFDLWGRGTLVTVSS
VL: not shown
notes: Germline Fab made in E. coli; VH was cloned in Plasmid A (CH1 constant region, His6 and Flag tags) and the kappa VL in Plasmid C (kappa CL); Only the variable domains are tied to this Fab by name
In the case of B1, the ECL signal [1] is reported as 2030, the ECL signal [2] is reported as 2580 and the ECL signal [3] is reported as 4230. The ECL signal [4] was 2350, the ECL signal [5] was 2450 and the ECL signal [6] was 2680. It also gave an ECL signal [7] of 2110, an ECL signal [8] of 2420 and an ECL signal [9] of 2150.

B2: Fab VH1-46_IGHD6-13*01_IGHJ4*01 & O1_IGKJ1*01 (Fab, V domains shown)
VH: QVQLVQSGAEVKKPGASVKVSCKASGYTFTSYYMHWVRQAPGQGLEWMGIINPSGGSTSYAQKFQGRVTMTRDTSTSTVYMELSSLRSEDTAVYYCAREGYSSSWYDYFDYWGQGTLVTVSS
VL: DIVMTQTPLSLPVTPGEPASISCRSSQSLLDSDDGNTYLDWYLQKPGQSPQLLIYTLSYRASGVPDRFSGSGSGTDFTLKISRVEAEDVGVYYCMQRIEFPSWTFGQGTKVEIKR
notes: Germline library Fab expressed in E. coli; VH was cloned into Plasmid A (CH1 constant region, His6 and Flag tags); The kappa VL was cloned into Plasmid C (kappa CL)
Work on B2 yielded an ECL signal [10] of 3010.

B3: Fab VH6-1_IGHD3-3*01_IGHJ4*01 & V4-3_IGLJ4*01 (Fab, V domains shown)
VH: QVQLQQSGPGLVKPSQTLSLTCAISGDSVSSNSAAWNWIRQSPSRGLEWLGRTYYRSKWYNDYAVSVKSRITINPDTSKNQFSLQLNSVTPEDTAVYYCAREYYDFWSGYYTDYFDYWGQGTLVTVSS
VL: QPVLTQPTSLSASPGASARLTCTLRSGINLGSYRIFWYQQKPESPPRYLLSYYSDSSKHQGSGVPSRFSGSKDASSNAGILVISGLQSEDEADYYCMIWHSSASFVFGGGTQLIIL
notes: Tested as a purified germline Fab made in E. coli; The VH was cloned into plasmid A (CH1 constant region, His6 and Flag tags) and the lambda VL into plasmid E (lambda CL)
B3 was tested, and the ECL signal [11] was 484, the ECL signal [12] was 325 and the ECL signal [13] was 736. It also gave an ECL signal [14] of 440 and an ECL signal [15] of 425.

B4: Fab VH1-46_IGHD3-10*01_IGHJ4*01 & B3_IGKJ1*01 (Fab, V domains shown)
VH: QVQLVQSGAEVKKPGASVKVSCKASGYTFTSYYMHWVRQAPGQGLEWMGIINPSGGSTSYAQKFQGRVTMTRDTSTSTVYMELSSLRSEDTAVYYCAREYYYGSGSYYNDYFDYWGQGTLVTVSS
VL: not shown
notes: Tested as a Fab made in E. coli; VH was cloned into Plasmid A (CH1 constant region, His6 and Flag tags); The kappa VL was cloned into Plasmid C (kappa CL)
B4 showed an ECL signal [16] of 606 and an ECL signal [17] of 649.

— US20120316071A1 (published 2012)
